# Patent US20220242963A1, “B-CELL ACTIVATING CD73 ANTIBODIES” (CORVUS PHARMACEUTICALS, INC., priority 2018, published 2022)
# T1: CD73 (Homo sapiens, UniProt P21589)
# T1 construct: endogenous in cells; host or cells: Whole blood of cancer patients (CD73+ CD8 T cells)
# T1 sequence (P21589 27-549): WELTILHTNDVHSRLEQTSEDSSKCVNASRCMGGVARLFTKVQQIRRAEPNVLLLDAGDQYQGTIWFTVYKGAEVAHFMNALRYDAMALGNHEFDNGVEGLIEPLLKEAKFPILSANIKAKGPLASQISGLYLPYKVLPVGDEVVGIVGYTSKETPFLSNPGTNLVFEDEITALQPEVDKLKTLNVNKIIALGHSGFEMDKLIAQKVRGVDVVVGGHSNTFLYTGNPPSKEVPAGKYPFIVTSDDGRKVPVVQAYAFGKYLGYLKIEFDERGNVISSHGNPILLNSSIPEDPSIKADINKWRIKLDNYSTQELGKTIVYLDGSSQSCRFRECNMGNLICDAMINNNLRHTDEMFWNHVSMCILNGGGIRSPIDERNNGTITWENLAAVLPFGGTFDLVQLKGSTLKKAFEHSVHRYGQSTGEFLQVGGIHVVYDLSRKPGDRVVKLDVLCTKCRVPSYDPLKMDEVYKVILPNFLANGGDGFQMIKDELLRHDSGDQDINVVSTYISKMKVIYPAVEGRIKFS
# B1: CPI-006: humanized CD73 antibody, wherein the light chain is SEQ ID NO:8 and the heavy chain is SEQ ID NO:7; IgG1 Fcγ receptor-deficient (antibody, V domains shown)
# VH: QVQLVQSGAEVEKPGASVKVSCKASGYTFTSYWITWVRQAPGQGLEWMGDIYPGSGNTNYNEKFKTRVTITADKSTSTAYMELSSLRSEDTAVYYCAKEGGLTTEDYALDYWGQGTLVTV
# VL: EIVLTQSPATLSLSPGERATLSCRASKNVSTSGYSYMHWYQQKPGQAPRLLIYLASNLESGIPPRFSGSGYGTDFTLTINNIESEDAAYYFCQHSRELPFTFGQGTKVEIK
# Assays:
# CD73 [1] = target: T1, CD73; test: CD73 catalytic activity in MDA-MB-231 cells (phosphate, Sensolyte Malachite Green); type: cell-based; details: 250 μM AMP, FIG. 1B
# Description: (§1) FIG. 1A provides a schematic of CD73 structure. […] Each symbol represents an independent donor.
# MDA-MB-231 cells (e.g., available at ATCC® as HTB-26™) were incubated with a human IgG1 isotype control, CPI-006, CPX-016, or adenosine 5′-(α,β-methylene)diphosphate (also known as APCP, which is a small molecule inhibitor of CD73 enzymatic activity), prior to addition of 250 μM of adenosine monophosphate (AMP). Phosphate levels were measured in the cell culture supernatant using the Sensolyte Malachite Green assay kit. Peripheral blood mononuclear cells (PBMC) were isolated from healthy donors and labeled with CellTrace™ Violet (ThermoFisher Scientific) prior to culture with 1 μg/mL anti-CD3 and anti-CD28, 200 units/mL IL-2, 3 mM AMP and indicated treatments (CPI-006 at 500 nM; CPX-016 at 500 nM; human IgG1 isotype control at 890 nM). T cell proliferation was measured by Cell Trace Violet dilution and was defined by gating relative to unstimulated PBMC (FIG. 1C). IFN-gamma production was measured in cell culture supernatants by AlphaLISA (FIG. 1D). Results shown in FIGS. 1B-D illustrate that inhibition of CD73 activity has an agonistic effect on immunomodulatory activity.
# CD73 [2] = target: T1, CD73; test: CD73 enzymatic activity in MDA-MB-231 xenograft model; type: in vivo; details: MDA-MB-231 human TNBC xenograft model; FIG. 1F
# Description: as §1
# CD73 [3] = target: T1, CD73; test: Occupancy and inhibition of CD73 in a tumor biopsy of a treated colorectal cancer patient; type: in vivo; details: 12 mg/kg, retroperitoneal lesion at trough pre-dose 3, FIG. 5
# Description: The tumor biopsy was of a retroperitoneal lesion obtained at trough pre-dose 3.
# A tumor biopsy taken from a colorectal cancer patient treated with CPI-006 was evaluated for inhibition of CD73 enzymatic activity.
# T cell clones = test: T cell receptor Vb sequencing of peripheral blood (T cell clone frequency); type: in vivo, human
# Description: FIGS. 11A-11C show clonal abundance plots of T cell clones for three patients treated with CP1-006. Sequencing of the Vb region of the T cell receptor was performed to identify the frequency of unique T cell clones in peripheral blood samples collected pre-treatment and on-treatment at 6 weeks of 12 mg/kg CPI-006+ciforadenant (FIG. 11A), 12 mg/kg CPI-006 (FIG. 11B), or 18 mg/kg CPI-006 (FIG. 11C). Expansion of new T cell clones was observed after 6 weeks in 3 of 8 evaluated patients treated with CPI-006.
# Immunomodulatory activity of CPI-006 was evaluated in patients administered CPI-006. […] Further, T cell activation was evaluated upon treatment with various dosages of the monotherapy CPI-006 or a combination therapy of CPI-006 and ciforadenant. Once a T cell clone is activated, the clone can expand and produce clonal copies of the original clone. […] The results further affirm CPI-006 is an immunomodulator of CD73 positive cells.
molecule,measurement,setting,value
B1,adenosine production (CD73 catalytic activity),CD73 [1],blocks adenosine production
same,CD73 enzymatic activity in tumor xenograft,CD73 [2],blocks CD73 enzymatic activity
same,CD73 enzymatic activity in tumor biopsy,CD73 [3],inhibit CD73 enzymatic activity
same,occupancy of CD73 in tumor biopsy,CD73 [3],binds and saturates CD73
same,generation of new T cell clones,"T cell clones; 12 or 18 mg/kg CPI-006, or 12 mg/kg CPI-006 + ciforadenant, 6 weeks, FIGS. 11A-11C",new T cell clones were generated
same,evaluated patients with expansion of new T cell clones,"T cell clones; after 6 weeks of treatment, peripheral blood",3 of 8
